± gives the standard deviation of the averaged measurements.
What follows are sequences tested on ATP (assay: switch fluorescence ratio, 500 uM ATP over buffer (Cy3 cluster intensity, sum of 5 cycles each) (fold (ratio)); higher = stronger signal-on switching upon ATP binding; sequences stand for … in TCGTCGGCAGCGTCAGATGTGTATAAGAGACAGTTTTTTTTTTTTTTTTTTTTTTTTT…TC). Conditions: aptamer strand: ATP DNA aptamer (quencher-CACCTGGGGGAGTATTGCGGAGGAAGG + anchor), 100 nM annealed; ATP concentration: 500 uM.
Method in brief: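 Cy3-labelled switching-strand clusters on a modified Illumina MiSeq flow-cell were annealed to 100 nM quencher-labelled ATP aptamer and imaged first in selection buffer, then after 15 min with 500 uM ATP at 22 °C. NaOH stripping and re-annealing separated each of five buffer/ATP cycles, and clusters outside 100-1000 RFU were excluded. The fluorescence ratio sums target-cycle Cy3 intensity over buffer-cycle Cy3 intensity per cluster and averages it per switch-domain sequence.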
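Note: ATP exposure 15 min at 22 °C before imaging.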

Sequence | switch fluorescence ratio
TAAAAGGTCC | 1.04 ± 0.038
GAGAAATCTT | 1.01 ± 0.03
TAGCTGTTTT | 1.02 ± 0.02
TCATGTTGCT | 1.01 ± 0.025
TTTCAGGGGT | 1.86 ± 0.81
ATAACCCTTT | 1.12 ± 0.18
AAGGGGAGAA | 0.9872 ± 0.008
GATAGTGGGA | 0.997 ± 0.018
CGTTTGTTCC | 1.0348 ± 0.00023
TATCTTGCAT | 0.97 ± 0.048
GACTGTAAGG | 0.997 ± 0.08
TTATATCCTG | 0.974 ± 0.038
CGACTGAGGT | 1.03 ± 0.029
ATTTTACCAT | 1.04 ± 0.075
GCCGGGGAGT | 0.989 ± 0.027
TAAAACGATC | 0.966 ± 0.036
GATTTATATC | 0.993 ± 0.028
AGTTAATGCT | 0.9856 ± 0.0026
AGAGTGATGC | 1 ± 0.087
TGGGACGTTA | 1.04 ± 0.036
AAAAGGGCGC | 1.03 ± 0.045
TAGCAAAGAA | 1.03 ± 0.03
ATAATGGAGT | 0.983 ± 0.066

Sequence | switch fluorescence ratio
AGTATTTCGT | 0.987 ± 0.031
GCGGTTTTGT | 0.998 ± 0.029
CGGGAGGAGG | 1 ± 0.028
AAAAAATTAG | 0.996 ± 0.05
TTGTCCTAGT | 1.008 ± 0.0012
GGATTAACTA | 0.9887 ± 0.0061
TTTTACGTGG | 0.9938 ± 0.0019
GGCAAAGGGG | 1.01 ± 0.041
TATGGACGTT | 1.03 ± 0.053
ATTTAAAACC | 1.06 ± 0.015
AAGTTCACGG | 1.06 ± 0.025
CATTCAGGGG | 1.2 ± 0.061
TCGAAAACAG | 0.961 ± 0.0078
ACCGGACATG | 1.07 ± 0.034
TTAGGACTT | 1.02 ± 0.073
AAGGGTCAGC | 0.9917 ± 0.0081
CGGGAGTGCT | 0.994 ± 0.019
TCGGTATTTG | 0.967 ± 0.037
TGTGCAAAGG | 0.997 ± 0.042
TTTTCATGAT | 0.991 ± 0.022
GAAGTCCGGG | 0.9871 ± 0.0048
CGATAGGTTT | 1 ± 0.019
TTTGAAAACG | 1.02 ± 0.033

Sequence | switch fluorescence ratio
CGTAGTCTGG | 1.05 ± 0.038
GTGTTAGTCC | 1.05 ± 0.11
CTTATAGGTC | 1.01 ± 0.017
TTTGCTTGGT | 0.994 ± 0.03
GGGTATTTTA | 0.988 ± 0.057
CCTAGTTGAA | 1.03 ± 0.015
AAATTAATGT | 1 ± 0.018
TGTTAATTGA | 1.01 ± 0.015
TTTTAGTTCT | 1.25 ± 0.42
CCGGCTGGGT | 0.9584 ± 0.0069
TTAGGCTTGT | 0.996 ± 0.02
TTTTACCGTT | 1.02 ± 0.015
TTTATTACTT | 1 ± 0.029
ATGAAAATCA | 1.01 ± 0.019
ATCATGGGGG | 0.986 ± 0.022
AGGGAAAAAG | 1.02 ± 0.045
AATTCAGCCT | 1.06 ± 0.035
AGGGATTTAA | 0.988 ± 0.022
TTATGAGGCA | 0.978 ± 0.026
CGGGCTGCGT | 0.962 ± 0.028
TGTTGCTGGA | 1 ± 0.03
GATGAGAGGA | 1.03 ± 0.05
TTGGGCACTG | 0.974 ± 0.013

Sequence | switch fluorescence ratio
GAAGTTTGTA | 0.992 ± 0.022
TCGTATTGAG | 0.9482 ± 0.0077
TCATAAACTT | 1.09 ± 0.058
TACCGTTTGC | 1.19 ± 0.089
AATATGTCTG | 0.937 ± 0.06
ACACAGGGTC | 1.07 ± 0.011
AATGGGATAG | 1.02 ± 0.021
GCAATTGCCT | 0.989 ± 0.029
CGAATTCCGG | 1.01 ± 0.084
TCCACGGTCT | 1.0273 ± 0.00046
TCGGGATAAG | 1.01 ± 0.018
TACGGTTCGC | 1.02 ± 0.019
TTAGTCCCCG | 1.02 ± 0.038
GATTTGTGGG | 0.994 ± 0.024
GGGCTATGGG | 0.997 ± 0.049
GGCAGCCGGC | 1.03 ± 0.041
TTATCGGTCT | 0.9849 ± 0.0065
TTTGTCATTT | 0.98 ± 0.016
ATTTAAATAG | 0.993 ± 0.035
AGTTATTAAT | 1.06 ± 0.054
AATGGGCCCT | 0.979 ± 0.047
TTTTGGGCCC | 1.04 ± 0.076
AGCCTCCGGT | 1.13 ± 0.073

Sequence | switch fluorescence ratio
AGCGTATGCA | 1.02 ± 0.024
GATTTGGGT | 0.997 ± 0.051
GGCGCAACGG | 1.05 ± 0.024
ATAGTATTTT | 0.995 ± 0.025
GGACTTCTTG | 0.932 ± 0.045
TTCGAATGGT | 0.9724 ± 0.0062
GATAGGGCGC | 1.02 ± 0.026
GAAAGGGGTG | 1.02 ± 0.064
TATGAAAGTG | 0.983 ± 0.035
CGAAAGGGCT | 0.989 ± 0.036
TGGCTTGCG | 1.01 ± 0.04
GCGACGGGT | 1.02 ± 0.06
GGGAGAAAAG | 0.984 ± 0.014
GTATTATGGG | 1 ± 0.029
CATCGACTGG | 0.965 ± 0.017
AGTTTGTTCG | 0.953 ± 0.022
AGGCGGGGAG | 1.02 ± 0.026
GTCATCAGTG | 1.02 ± 0.027
AGTATCTGGG | 0.9886 ± 0.0094
CGGGGAGGGT | 0.967 ± 0.015
AGGGGAAAGA | 1.02 ± 0.04
TATGGATGGG | 0.961 ± 0.02
AAAGGAGGTA | 1 ± 0.012

Sequence | switch fluorescence ratio
TTATAGGGCC | 1 ± 0.025
GCGATTGAGG | 0.9891 ± 0.005
ACGGGACTAG | 1.02 ± 0.099
TGTACTAGGG | 1.001 ± 0.0069
CGTTGGGGAG | 1.02 ± 0.03
CTGGTTTAGC | 1 ± 0.016
TGAAGATAAC | 1.02 ± 0.026
GCATTACCGG | 1.03 ± 0.04
ATATAATTTG | 1.04 ± 0.055
TGCGTGGGGA | 1.04 ± 0.0057
AAACTTAGCA | 1.02 ± 0.012
ATGGTTGTGT | 0.983 ± 0.034
AACGAGTGAG | 1.01 ± 0.023
GATCGAAAGG | 0.966 ± 0.025
CCTTATGGGA | 0.982 ± 0.026
GTTGGAACAG | 0.969 ± 0.043
ATCGGTGGGA | 0.992 ± 0.0031
GGATACGGTG | 1.08 ± 0.061
CGTACATGAT | 1.02 ± 0.022
TTAGAAGGTT | 1 ± 0.026
ACCATTGGTG | 1.12 ± 0.013
ATTCCTAGGG | 1.048 ± 0.0022
CCAGTGATGT | 1.04 ± 0.024

Sequence | switch fluorescence ratio
CAATATGACT | 0.991 ± 0.092
AAACTCAACG | 1.08 ± 0.031
TTTATGTTTC | 0.98 ± 0.025
ACCCGACGAG | 1.03 ± 0.039
GTTAGTTACT | 1.01 ± 0.057
GGGTGAATGT | 0.993 ± 0.041
GGGCATCTTT | 1 ± 0.06
AATAAGGGGC | 1.0051 ± 0.00093
ACTTTTGTTT | 1.02 ± 0.015
TAGATTTGTT | 1.01 ± 0.03
TTTGTGGGGG | 1.01 ± 0.041
ATGGAAGGGT | 0.988 ± 0.052
AGTAGGCGAG | 0.996 ± 0.042
GGTTTATATG | 1.035 ± 0.0011
ATAGGTGGCG | 1.01 ± 0.038
AGTGTTGTTG | 0.9727 ± 0.0095
ATCTGGATGG | 0.996 ± 0.03
TGCGCTTCTA | 0.98114 ± 0.00055
CAGGTTGGAG | 1.15 ± 0.24
